Assay results: patent US20110230643A1

Target: Toll-like receptor 5 (TLR5), constitutively expressed on Caco-2 cells (UniProt O60602)
Assay: cell-based or functional assay

Sequence of UniProt O60602 (O60602 21-858 limits assumed): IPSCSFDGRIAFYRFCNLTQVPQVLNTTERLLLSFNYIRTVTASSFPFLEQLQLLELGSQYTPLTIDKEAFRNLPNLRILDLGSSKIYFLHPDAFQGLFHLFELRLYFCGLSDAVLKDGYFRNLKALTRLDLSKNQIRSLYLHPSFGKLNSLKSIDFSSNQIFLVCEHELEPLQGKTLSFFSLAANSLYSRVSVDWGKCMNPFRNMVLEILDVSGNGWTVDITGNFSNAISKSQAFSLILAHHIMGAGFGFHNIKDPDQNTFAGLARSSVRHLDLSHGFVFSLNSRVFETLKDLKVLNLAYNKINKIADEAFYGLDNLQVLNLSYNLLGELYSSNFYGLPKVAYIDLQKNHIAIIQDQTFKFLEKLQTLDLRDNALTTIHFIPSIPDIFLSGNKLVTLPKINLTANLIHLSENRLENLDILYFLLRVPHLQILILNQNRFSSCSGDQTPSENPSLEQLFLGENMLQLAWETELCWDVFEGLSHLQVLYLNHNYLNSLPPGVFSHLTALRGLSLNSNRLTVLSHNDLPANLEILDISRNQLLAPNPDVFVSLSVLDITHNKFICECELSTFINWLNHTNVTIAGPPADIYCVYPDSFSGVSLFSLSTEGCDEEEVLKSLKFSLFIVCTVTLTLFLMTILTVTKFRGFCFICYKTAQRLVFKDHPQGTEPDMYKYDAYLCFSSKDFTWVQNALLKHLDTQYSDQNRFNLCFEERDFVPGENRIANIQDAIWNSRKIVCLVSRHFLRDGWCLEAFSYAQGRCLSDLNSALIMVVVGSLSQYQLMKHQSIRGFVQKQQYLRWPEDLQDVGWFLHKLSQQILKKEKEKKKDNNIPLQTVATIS

## flagellin protein FliC from Salmonella enterica J341, recombinant, with C-terminal 6-histidine tag (from UniProt P06177 1-505) (ligand)
  dose at which the stimulating activity (IL-8 and MCP-1 release of Caco-2 cells) reached saturation: > 1000 ng/mL
